Experimental findings from patent US20190248902A1 (published 2019) are described below.

Substitutions are numbered along the chain they refer to.

This assay concerns the target T1, Soluble ASGR-1 (human, UniProt P07306 62-291, biotinylated).
T1 construct: Soluble recombinant protein; also called recombinant, soluble ASGR-1 biotinylated protein
T1 sequence: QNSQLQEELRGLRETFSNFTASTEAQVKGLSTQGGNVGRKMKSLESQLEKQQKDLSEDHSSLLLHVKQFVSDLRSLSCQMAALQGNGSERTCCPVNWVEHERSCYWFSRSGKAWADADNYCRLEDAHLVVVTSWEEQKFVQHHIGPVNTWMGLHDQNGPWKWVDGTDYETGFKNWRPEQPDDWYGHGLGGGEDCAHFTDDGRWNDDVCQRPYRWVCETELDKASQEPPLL
Description: limited antigen binding assay; biotinylated soluble ASGR-1 coated at 2.5 ng/mL on LumAvidin beads, FACS.

B1: 4B1 (antibody, V domains shown)
VH: QVQLQESGPGLVKPSETLSLTCSVSGDSISSYSWSWIRQPAGKGLEWIGRIYTSGSTNYIPSLKSRITMSVDTSKKQFSLKLSSVTAADTAVYYCARDLKSSGCLFFDYWGQGTLVTVSS
VL: DIQMTQSPSSLSASVGDRVTITCRASHTIRTYLNWYQQKPGKAPKLLIYAASSLQSGVPSRINGSGSGTDFTLTITNLQPEDFATYYCQQSYNISFTFGPGTKVDIK
notes: Tested as hybridoma supernatant at normalized concentration
Regarding B1, the “FACS Geomean” value came to 10100 FACS Geomean.

B2: 4H6 (antibody, V domains shown)
VH: QVQLVQSGAEVKKPGASVKVSCKASGYTFTDYYLHWVRQAPGQGLEWMGWIHPNSGGTNYAQKFQGRVTMTRDTSISTAYMGLSSLRSDDTAVYYCARDGTSSFDYWGQGTLVTVSS
VL: DIQMTQSPSSVSASVGDRVTITCRASQGISRWLAWYQQKPGKAPKLLIYGASSLQSGVPSRFSGSGSGTDFTLTISSLQPEDFAIYYCQQANSFPFTFGPGTKVDIK
notes: as for B1
For the molecule B2, the “FACS Geomean” value is 2990 FACS Geomean.

B3: 72G9 (antibody, V domains shown)
VH: EVQLVESGGGLVKPGGSLRLSCAASGFTFSSYSMNWVRQAPGKGLEWVSSISGSSSYIYYADSVKGRFTISRDNAKNSLYLQMNSLRAEDTAVYFCARGGSRGFDPWGQGTLVTVSS
VL: B2 VL with V11L, G28S, S30T, R31S, W32Y, A34N, G50T, I85T, A91S, N92H
notes: as for B1
For B3, the “FACS Geomean” value is 34000 FACS Geomean.

B4: 56E5 (antibody, V domains shown)
VH: QVQLVQSGAEVKKPGASVKVSCQASGYTFTGYHMHWVRQAPGQGLEWMGWINPNNNATNYAQKFQGRVTMTRDTSISTAYMELRRLRSDDTAVYHCARDGTSSFDYWGQGTLVTVSS
VL: B2 VL with S30R, R31K, G50A, I85T
notes: as for B1
Consider B4, for which the “FACS Geomean” value is 22600 FACS Geomean.

B5: 4A2 (antibody, V domains shown)
VH: QVQLVQSGTEVKKPGASVKVSCKASGYTFTNYDINWVRQATGQGLEWMGWMHPNSGNTGYAQKFQGRVTLTRNTSISTAYMELSSLRSEDTAVYYCASSSGWYYFDYWGQGTLVTVSS
VL: DIVMTQSPDSLAVSLGERATINCKSSQSILHSSNNNNYLAWFQQKPGQPPKLLLYWASTRESGVPDRFSGSGSGTDFTLTISSLQPEDVAVYYCQQYYNTPVTFGPGTKVGIK
notes: as for B1
Turning to B5, the “FACS Geomean” value came out at 16600 FACS Geomean.

B6: 194A4 (antibody, V domains shown)
VH: QVQLVQSGTEVKKPGASLKVSCKASGYTFTVYYLNWVRQAPGQGLEWMGWINPNSGGTNYAQKFQGRVTMTRDTSISTAYMELSRLRSDDTAVYYCARGYDILTGWGQGTLVTVSS
VL: EIVLTQSPGTLSLSPGERATLSCRASRGVSNIYLAWYQQKPGQAPRLLIYGASNRATGIPDRFSGSGSGTDFTLTISRLEPEDFAVYYCQHNDYSMFTFGPGTKVDIK
notes: as for B1
In the case of B6, the “FACS Geomean” value was 38900 FACS Geomean.

B7: 184E7 (antibody, V domains shown)
VH: QVQLVQSGAEVKTPGASVKVSCRASGYTFTSYNMHWVRQVPGQGLEWMGWINPNNGGSNYTQKFQGRVTMTRDTSISTAYMELSRLRSDDTAVYYCARKFGDWGQGTLVTVSS
VL: DIQMTQSPSSRSASIGERVTITCRASQGISNYLAWIQQKPGTAPKSLIYAASSLQSGVSSRFSGSGFGTDFTITISSVQREDFATYYCQQYNGYPFTFGHGTKVDIK
notes: as for B1
As to B7, the “FACS Geomean” value stood at 40200 FACS Geomean.
